Test results published in US20110159013A1.

Biological target: ADDL fibril preparation (Aβ1-42 fibrils made in 10 mM hydrochloric acid)
Test: solution equilibrium titration; free IgG by ELISA; GraFit

monoclonal antibody WO-2
Kd: 1.15 nM
